In publication PMC7379511:

Target: feline interleukin-31 (fIL-31) displayed on the yeast surface (pETconNK_fIL-31) (feline)
Test: flow cytometry on cells

Substance: soluble feline oncostatin M receptor extracellular domain, Fc fusion (fOSMR-ECD)
- Kd: 0.0103 µM
- percent decrease of the binding of biotinylated fIL31RA-1FNIII: 65%
- percent decrease of the binding of biotinylated fOSMR-ECD (itself): 97%
